{"source": "paper PMC5368644", "test_in_all_cases": "NMR", "settings_in_all_cases": "25 °C; Not stated for the titration samples (structure samples contained 45 mM NaCl, 1 mM EDTA, 1 mM EGTA); Phosphate buffer for pH 7.3 to 5.9; acetate buffer for pH 5.5 to 3.5; pH changed by buffer exchange; concentrations not given; Ca2+-free, ligand-free, folded (the protein starts to unfold at pH 3 or below); ~0.5 mM protein", "key": {"His151": {"molecular_target": "His151 (UniProt position 178, ASGFKHVVPNE)"}, "Asp109": {"molecular_target": "Asp109 (UniProt position 136, FTVQLDDYLNG)"}, "Asp61": {"molecular_target": "Asp61 (UniProt position 88, TNLYGDFFTGD)"}, "Glu121": {"molecular_target": "Glu121 (UniProt position 148, AVQHREVQGFE)"}, "Asp110": {"molecular_target": "Asp110 (UniProt position 137, TVQLDDYLNGR)"}, "Asp50": {"molecular_target": "Asp50 (UniProt position 77, RVEKFDLVPVP)"}, "Glu92": {"molecular_target": "Glu92 (UniProt position 119, YWLGNECSQDE)"}, "Asp84": {"molecular_target": "Asp84 (UniProt position 111, GNLQYDLHYWL)"}, "Glu97": {"molecular_target": "Glu97 (UniProt position 124, ECSQDESGAAA)"}, "Glu47": {"molecular_target": "Glu47 (UniProt position 74, QIWRVEKFDLV)"}, "Glu126": {"molecular_target": "Glu126 (UniProt position 153, EVQGFESATFL)"}, "His29": {"molecular_target": "His29 (UniProt position 56, SMVVEHPEFLK)"}, "Asp96": {"molecular_target": "Asp96 (UniProt position 123, NECSQDESGAA)"}, "His119": {"molecular_target": "His119 (UniProt position 146, GRAVQHREVQG)"}, "Asp66": {"molecular_target": "Asp66 (UniProt position 93, DFFTGDAYVIL)"}, "Glu156": {"molecular_target": "Glu156 (UniProt position 183, HVVPNEVVVQR)"}, "Glu38": {"molecular_target": "Glu38 (UniProt position 65, LKAGKEPGLQI)"}, "His86": {"molecular_target": "His86 (UniProt position 113, LQYDLHYWLGN)"}}}
{"substance": "Gelsolin fragment G1+ (domain 1 plus G1-G2 linker) (Homo sapiens (inferred; not stated explicitly in the article))", "values": [{"measurement": "pKa", "setting": "His151", "result": 6.2}, {"measurement": "pKa", "setting": "Asp109", "result": 5.5}, {"measurement": "pKa", "setting": "Asp61", "result": 4.5}, {"measurement": "pKa", "setting": "Glu121", "result": "<3.5"}, {"measurement": "pKa", "setting": "Asp110", "result": 4.3}, {"measurement": "pKa", "setting": "Asp50", "result": 4.8}, {"measurement": "pKa", "setting": "Glu92", "result": 4.3}, {"measurement": "pKa", "setting": "Asp84", "result": "<3.5"}, {"measurement": "pKa", "setting": "Glu97", "result": "<3.5"}, {"measurement": "pKa", "setting": "Glu47", "result": "<3.5"}, {"measurement": "pKa", "setting": "Glu126", "result": "<3.5"}, {"measurement": "pKa", "setting": "His29", "result": 5.9}, {"measurement": "pKa", "setting": "Asp96", "result": "<3.5"}, {"measurement": "pKa", "setting": "His119", "result": 4.3}, {"measurement": "pKa", "setting": "Asp66", "result": 3.9}, {"measurement": "pKa", "setting": "Glu156", "result": 3.8}, {"measurement": "pKa", "setting": "Glu38", "result": 4.1}, {"measurement": "pKa", "setting": "His86", "result": 4.2}]}
